# B1: UGT76G1var94: UGT76G1 variant containing mutations Q266E_P272A_R334K_G348P_L379G (protein, UniProt Q6VAB4 1-458, looked up, variant Q266E P272A R334K G348P L379G)
# UDP-glycosyltransferase 76G1: MENKTETTVRRRRRIILFPVPFQGHINPILQLANVLYSKGFSITIFHTNFNKPKTSNYPHFTFRFILDNDPQDERISNLPTHGPLAGMRIPIINEHGADELRRELELLMLASEEDEEVSCLITDALWYFAQSVADSLNLRRLVLMTSSLFNFHAHVSLPQFDELGYLDPDDKTRLEEQASGFPMLKVKDIKSAYSNWQILKEILGKMIKQTKASSGVIWNSFKELEESELETVIREIPAPSFLIPLPKHLTASSSSLLDHDRTVFEWLDQQAPSSVLYVSFGSTSEVDEKDFLEIARGLVDSKQSFLWVVRPGFVKGSTWVEPLPDGFLGERGKIVKWVPQQEVLAHPAIGAFWTHSGWNSTLESVCEGVPMIFSDFGGDQPLNARYMSDVLKVGVYLENGWERGEIANAIRRVMVDEEGEYIRQNARVLKQKADVSLMKGGSSYESLESLVSYISSL
# Experiment: Directed evolution of UGT76G1 round 1, variant lysates, Rebaudioside D to Rebaudioside M conversion and initial rate
# Type: biochemical
# Experimental: Lysis was performed by addition of Bugbuster® Master mix (Novagen®) to the thawed cells and the lysate was recovered by centrifugation. Activity tests were performed with 100 μL of fresh lysate that was added to a solution of Rebaudioside D (final concentration 0.5 mM), MgCl2 (final concentration 3 mM) and UDP-Glucose (final concentration 2.5 mM) in 50 mM phosphate buffer pH 7.2.
# The reaction was allowed to run at 30° C. and samples were taken after 2, 4, 7 and 24 h. to determine conversion and initial rate by HPLC (CAD detection) using the analytical method that was described above for the transformation of Rebaudioside D to Rebaudioside M. The results are depicted in the following table.
molecule,measurement,value
B1,"activity ranking in first round of directed evolution, Rebaudioside D to Rebaudioside M",most active clone

# — patent publication US11542537B2, “High-purity steviol glycosides” (PureCircle Sdn Bhd, priority 2012, dated 2023)
